# Measured values: patent US20220220176
# Test system: thrombin-cleavable prodrug of human NK1
# Sequence (chain, as listed by the source): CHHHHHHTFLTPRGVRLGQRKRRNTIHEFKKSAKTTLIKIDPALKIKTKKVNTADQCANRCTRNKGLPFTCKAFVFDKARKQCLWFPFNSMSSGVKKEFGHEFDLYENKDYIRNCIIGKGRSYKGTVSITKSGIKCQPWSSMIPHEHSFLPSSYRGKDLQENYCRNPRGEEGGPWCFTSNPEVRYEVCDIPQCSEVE
substance,measurement,value
thrombin (Thrombin from human plasma; Sigma-Aldrich Co. LLC),"cleavage of the protease-sensitive peptide and release of human NK1 (SDS electrophoresis, CBB staining)","The treatment of each prodrug of human NK1 with the corresponding protease (ADAM17 or thrombin) was found to cleave the protease-sensitive peptide contained in the prodrug of human NK1 so that the active form, human NK1, was released."
